Data taken from patent US20220332804A1 (CSL INNOVATION, published 2022).

Legend:
Assay in all cases: SPR, antibody captured, C2 as analyte;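 further: biacore SPR at 37 °C, anti-C2 mAbs captured via goat anti-human IgG on CM5 chips, double-referenced sensorgrams fit to a 1:1 kinetic or steady-state model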
human C2 G432A = biological target: T1, human C2 G432A (human, UniProt P06681 21-752)
T1 sequence: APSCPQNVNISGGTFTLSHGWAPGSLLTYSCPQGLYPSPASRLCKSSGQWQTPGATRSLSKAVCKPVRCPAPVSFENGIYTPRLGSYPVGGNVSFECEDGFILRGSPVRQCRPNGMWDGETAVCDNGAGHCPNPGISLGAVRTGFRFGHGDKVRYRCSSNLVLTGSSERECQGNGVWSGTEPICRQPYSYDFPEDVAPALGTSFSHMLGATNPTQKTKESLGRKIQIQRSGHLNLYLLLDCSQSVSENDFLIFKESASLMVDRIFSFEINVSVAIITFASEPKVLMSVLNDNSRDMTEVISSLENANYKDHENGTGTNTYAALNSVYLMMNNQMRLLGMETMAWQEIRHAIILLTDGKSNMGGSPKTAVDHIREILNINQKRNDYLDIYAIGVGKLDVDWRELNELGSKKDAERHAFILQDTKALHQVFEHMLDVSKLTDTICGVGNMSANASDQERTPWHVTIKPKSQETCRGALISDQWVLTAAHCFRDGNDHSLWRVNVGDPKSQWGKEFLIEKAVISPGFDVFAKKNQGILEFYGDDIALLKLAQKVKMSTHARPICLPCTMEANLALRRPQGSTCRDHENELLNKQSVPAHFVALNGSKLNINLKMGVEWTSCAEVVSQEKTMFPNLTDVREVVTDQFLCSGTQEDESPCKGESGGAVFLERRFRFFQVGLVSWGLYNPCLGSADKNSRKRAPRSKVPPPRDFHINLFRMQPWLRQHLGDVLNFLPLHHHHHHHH

human C2 K415A = biological target: T2, human C2 K415A (human, UniProt P06681 21-752)
T2 sequence: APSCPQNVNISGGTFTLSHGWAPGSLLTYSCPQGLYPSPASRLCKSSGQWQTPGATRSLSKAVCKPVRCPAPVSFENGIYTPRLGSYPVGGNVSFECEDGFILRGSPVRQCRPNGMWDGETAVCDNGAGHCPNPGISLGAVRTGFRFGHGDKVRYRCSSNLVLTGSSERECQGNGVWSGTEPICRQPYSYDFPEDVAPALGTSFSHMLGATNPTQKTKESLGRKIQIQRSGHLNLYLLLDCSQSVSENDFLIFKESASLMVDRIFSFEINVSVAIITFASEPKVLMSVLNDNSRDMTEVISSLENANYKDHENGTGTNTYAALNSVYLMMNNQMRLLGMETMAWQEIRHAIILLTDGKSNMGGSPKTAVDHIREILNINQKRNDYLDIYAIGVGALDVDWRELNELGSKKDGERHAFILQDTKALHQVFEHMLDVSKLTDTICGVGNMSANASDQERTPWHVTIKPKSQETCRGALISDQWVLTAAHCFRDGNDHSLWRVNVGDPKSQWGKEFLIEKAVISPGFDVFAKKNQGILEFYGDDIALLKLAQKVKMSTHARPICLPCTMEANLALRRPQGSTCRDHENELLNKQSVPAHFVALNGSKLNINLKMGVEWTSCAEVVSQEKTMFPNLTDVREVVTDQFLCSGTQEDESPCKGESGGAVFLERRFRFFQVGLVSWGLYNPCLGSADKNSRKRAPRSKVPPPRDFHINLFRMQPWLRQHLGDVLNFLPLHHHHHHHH

human C2 E275A = biological target: T3, human C2 E275A (human, UniProt P06681 21-752)
T3 sequence: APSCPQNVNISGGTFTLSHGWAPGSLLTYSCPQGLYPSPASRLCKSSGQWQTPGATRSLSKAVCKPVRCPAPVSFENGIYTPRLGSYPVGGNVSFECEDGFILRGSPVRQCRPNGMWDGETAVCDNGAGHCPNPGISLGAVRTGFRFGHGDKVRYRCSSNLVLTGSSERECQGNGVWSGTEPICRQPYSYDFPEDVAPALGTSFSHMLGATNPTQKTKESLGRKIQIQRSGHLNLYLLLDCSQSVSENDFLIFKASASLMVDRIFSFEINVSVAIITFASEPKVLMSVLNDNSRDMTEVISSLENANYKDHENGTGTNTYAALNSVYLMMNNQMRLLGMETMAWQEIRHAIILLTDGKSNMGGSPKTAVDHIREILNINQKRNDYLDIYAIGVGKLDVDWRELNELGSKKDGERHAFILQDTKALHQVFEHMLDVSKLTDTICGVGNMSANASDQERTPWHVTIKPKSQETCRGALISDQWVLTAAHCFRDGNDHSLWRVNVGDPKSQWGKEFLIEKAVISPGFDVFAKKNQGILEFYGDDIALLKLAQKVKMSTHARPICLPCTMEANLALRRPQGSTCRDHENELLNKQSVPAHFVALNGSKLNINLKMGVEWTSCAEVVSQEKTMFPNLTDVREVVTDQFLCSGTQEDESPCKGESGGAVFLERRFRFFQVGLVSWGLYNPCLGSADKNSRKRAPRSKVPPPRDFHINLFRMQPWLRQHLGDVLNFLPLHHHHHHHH

human C2 T647A = biological target: T4, human C2 T647A (human, UniProt P06681 21-752)
T4 sequence: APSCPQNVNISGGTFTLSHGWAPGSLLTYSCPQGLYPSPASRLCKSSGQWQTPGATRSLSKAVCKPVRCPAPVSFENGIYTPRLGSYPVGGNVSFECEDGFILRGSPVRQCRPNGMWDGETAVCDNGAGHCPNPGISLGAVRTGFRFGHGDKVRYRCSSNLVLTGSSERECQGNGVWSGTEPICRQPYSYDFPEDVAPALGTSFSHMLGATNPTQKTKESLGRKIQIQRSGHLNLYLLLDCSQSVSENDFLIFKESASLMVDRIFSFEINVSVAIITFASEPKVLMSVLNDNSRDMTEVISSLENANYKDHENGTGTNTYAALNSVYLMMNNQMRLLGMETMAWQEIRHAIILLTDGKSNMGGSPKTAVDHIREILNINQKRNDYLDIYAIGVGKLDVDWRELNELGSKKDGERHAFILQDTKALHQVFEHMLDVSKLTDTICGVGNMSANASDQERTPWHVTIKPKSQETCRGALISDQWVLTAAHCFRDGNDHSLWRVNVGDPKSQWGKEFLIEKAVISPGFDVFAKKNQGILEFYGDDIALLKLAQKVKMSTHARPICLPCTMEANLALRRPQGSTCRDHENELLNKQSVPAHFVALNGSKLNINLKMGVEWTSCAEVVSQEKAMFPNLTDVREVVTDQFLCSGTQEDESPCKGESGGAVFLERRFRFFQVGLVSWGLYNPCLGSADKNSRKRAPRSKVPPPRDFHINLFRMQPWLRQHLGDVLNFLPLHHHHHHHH

B1: RF16-226 (antibody, human IgG4 S228P, lambda)
heavy: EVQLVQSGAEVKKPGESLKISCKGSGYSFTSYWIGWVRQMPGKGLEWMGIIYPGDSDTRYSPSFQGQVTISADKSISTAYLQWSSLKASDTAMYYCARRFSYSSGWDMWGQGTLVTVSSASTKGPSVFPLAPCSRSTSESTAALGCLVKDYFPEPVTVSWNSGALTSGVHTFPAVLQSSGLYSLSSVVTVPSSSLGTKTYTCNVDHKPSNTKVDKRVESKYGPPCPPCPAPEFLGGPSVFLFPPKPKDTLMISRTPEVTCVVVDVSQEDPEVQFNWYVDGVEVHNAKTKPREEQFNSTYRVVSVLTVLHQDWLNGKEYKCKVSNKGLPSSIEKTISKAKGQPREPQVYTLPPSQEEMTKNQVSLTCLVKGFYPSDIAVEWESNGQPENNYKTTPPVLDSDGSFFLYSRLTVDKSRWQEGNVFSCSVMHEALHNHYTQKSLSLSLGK
light: SYELTQPPSVSVSPGQTARITCSGDALTSKYVAWYQQKSGLAPLLVIYEDTRRPSGIPAKFSGSSSGSVATLTISGAHGDDEADYYCYSTDASGHQRVFGGGTKLTVLSQPKAAPSVTLFPPSSEELQANKATLVCLISDFYPGAVTVAWKADGSPVKAGVETTKPSKQSNNKYAASSYLSLTPEQWKSHRSYSCQVTHEGSTVEKTVAPTECS
notes: pH-dependent anti-C2 antibody from a phage display library; also called WT
- Kd (human C2 G432A): 6.6 nM
- Kd (human C2 K415A): 11.7 nM
- Kd (human C2 E275A): 9.4 nM
- Kd (human C2 T647A): 147 nM
